Assay results as given in patent US20250243273A1 (FOURTH MILITARY MEDICAL UNIVERSITY, published 2025).

Molecular target: T1, human BASIGIN, native, on human erythrocytes and in human tumour tissue (human, UniProt P35613 22-385)
T1 sequence (looked up): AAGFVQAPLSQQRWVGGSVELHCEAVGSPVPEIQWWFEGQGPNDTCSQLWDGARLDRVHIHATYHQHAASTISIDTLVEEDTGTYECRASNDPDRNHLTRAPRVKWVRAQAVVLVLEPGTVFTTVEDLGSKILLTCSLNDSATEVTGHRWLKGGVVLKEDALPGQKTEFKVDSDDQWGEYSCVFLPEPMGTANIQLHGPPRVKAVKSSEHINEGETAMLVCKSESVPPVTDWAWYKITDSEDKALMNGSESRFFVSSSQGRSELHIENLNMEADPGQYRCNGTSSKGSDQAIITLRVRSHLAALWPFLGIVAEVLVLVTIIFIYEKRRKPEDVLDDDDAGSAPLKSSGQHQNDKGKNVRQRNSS
Assay: cell-based or functional assay

B1: humanized antibody HP6H8-1 (antibody, V domains shown)
VH: EVQLVESGGGLVQPGGSLRLSCAASGFTFSNFWMNWVRQAPGKGLEWVSEIRLKSNNYATHYAESVKGRFTISRDDSKNTLYLQMNSLKTEDTAVYYCTSYDYEYWGQGTLVTVSA
VL: DIQMTQSPSTLSASVGDRVTLSCKASENVGTYVSWYQQKPGKAPKLLIYGASNRYTGVPSRFTGSGSGTDFTLTISSLQPEDFATYYCGQSYSYPFTFGSGTKLEIK
IC50, in vitro inhibition of Plasmodium falciparum strain 3D7 invasion of human erythrocytes (parasite rate after 72 hrs): 20 µg/mL
IC50, in vitro inhibition of Plasmodium falciparum strain Dd2 invasion of human erythrocytes (parasite rate after 72 hrs): 40 µg/mL
IC50, in vitro inhibition of Plasmodium falciparum strain FCC1 invasion of human erythrocytes (parasite rate after 72 hrs): 40 µg/mL
IC50, in vitro inhibition of Plasmodium falciparum strain Nf54 invasion of human erythrocytes (parasite rate after 72 hrs): 50 µg/mL
